This note sets out measurements from the supplement of paper PMC7877785.

The series can be described thus: self-splicing fitness, log relative to wild type (ln ratio); higher = more splicing; Tetrahymena group I intron in knt gene, E. coli kanamycin selection, DiMSum; sequences stand for … in CUCUCU…GGAGGGAAAAGUUAUCAGGCAUGCACCUGGUAGCUAGUCUUUAAACCAAUAGAUUGCAUCGGUUUAAAAGGCAAGACCGUCAAAUUGCGGGAAAGGGGUCAACAGCCGUUCAGUACCAAGUCUCAGGGGAAACUUUGAGAUGGCCUUGCAAAGGGUAUGGUAAUAAGCUGACGGACAUGGUCCUAACCACGCAGCCAAGUCCUAAGUCAACAGAUCUUCUGUUGAUAUGGAUGCAGUUCACAGACUAAAUGUCGGUCGGGGAAGAUGUAUUCUUCUCAUAAGAUAUAGUCGGACCUCUCCUUAAUGGGAGCUAGCGGAUGAAGUGAUGCAACACUGGAGCCGCUGGGAACUAAUUUGUAUGCGAAAGUAUAUUGAUUAGUUUUGGAGUACUCGUGGUCG
Summed up:
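A randomised library covering all eight P1ex-region intron nucleotides was built with the intron in the knt kanamycin-resistance gene on pET-22b(+) and held in E. coli BL21(DE3). Cells were grown overnight at 37°C or 30°C on LB agar, with or without 25 μg/mL kanamycin, plus 100 μg/mL carbenicillin, 50 μM IPTG and 0.2% rhamnose, and pooled colonies were amplicon-sequenced on an Illumina HiSeq 2500. DiMSum fitness is the error-weighted combination of wild-type-normalised replicate fold changes, kanamycin versus none.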

± gives the uncertainty stated by the source.

For AGAGAGCAAUAUUACGGUCU, the “self-splicing fitness (ln)” value (30 °C) was -3.2 ± 0.15 and the “self-splicing fitness (ln)” value (37 °C) was -2.71 ± 0.29. AGCGAGCAAUAUUACGCAUU: the “self-splicing fitness (ln)” value by setting is: (30 °C) -2.63 ± 0.24; (37 °C) -2.04 ± 0.2.

As for CAUUAGCAAUAUUACGUUGC, the “self-splicing fitness (ln)” value runs as follows: (30 °C) -3.96 ± 0.19; (37 °C) -2.8 ± 0.19.

As for AUUGAGCAAUAUUACGUAGA, the “self-splicing fitness (ln)” value is -2.86 ± 0.26 (30 °C) and -2.38 ± 0.42 (37 °C). For the sequence CGAAAGCAAUAUUACGUGAG, the “self-splicing fitness (ln)” value reads like this: (30 °C) -0.204 ± 0.048; (37 °C) -0.102 ± 0.071. Consider CGCAAGCAAUAUUACGAGAG, for which the “self-splicing fitness (ln)” value runs as follows: (30 °C) -2.52 ± 0.1; (37 °C) -2.24 ± 0.15. For AUGCAGCAAUAUUACGUUCC, in that order: -1.55 ± 0.18 and -1.17 ± 0.22. For the sequence UCCAAGCAAUAUUACGAGUA, the “self-splicing fitness (ln)” value (30 °C) is -0.957 ± 0.099 and the “self-splicing fitness (ln)” value (37 °C) is -0.576 ± 0.084. Take GAGUAGCAAUAUUACGUACC: the “self-splicing fitness (ln)” value reads like this: (30 °C) -1.54 ± 0.17; (37 °C) -0.923 ± 0.27. For GAUGAGCAAUAUUACGCUCA, the “self-splicing fitness (ln)” value is, setting by setting: (30 °C) -1.18 ± 0.41; (37 °C) -0.934 ± 0.42. For ACCAAGCAAUAUUACGCUUG, in that order: -2.72 ± 0.21 and -3.79 ± 0.36. For CGUCAGCAAUAUUACGAGAU, in that order: -3.93 ± 0.21 and -2.65 ± 0.17. Consider AACGAGCAAUAUUACGUGUA, for which the “self-splicing fitness (ln)” value runs as follows: (30 °C) -2.55 ± 0.11; (37 °C) -3.2 ± 0.14. The matching figures for CCACAGCAAUAUUACGGGGG: -2.71 ± 0.093 and -2.4 ± 0.16. The matching figures for GCUAAGCAAUAUUACGAGUG: -1.09 ± 0.048 and -0.811 ± 0.06. As to GAUAAGCAAUAUUACGAGAU, the “self-splicing fitness (ln)” value is, setting by setting: (30 °C) -3.66 ± 0.21; (37 °C) -2.14 ± 0.21. The matching figures for AAAGAGCAAUAUUACGCGGU: -3.49 ± 0.18 and -1.49 ± 0.16. The matching figures for UCACAGCAAUAUUACGUAGC: -2.87 ± 0.18 and -1.34 ± 0.21. For the sequence UCUGAGCAAUAUUACGCGUU, the “self-splicing fitness (ln)” value was -4.91 ± 0.45 (30 °C) and -2.63 ± 0.28 (37 °C). The matching figures for ACCCAGCAAUAUUACGAUAU: -1.72 ± 0.1 and -0.318 ± 0.11.

Turning to CCUGAGCAAUAUUACGGGCG, the “self-splicing fitness (ln)” value (30 °C) is -2.62 ± 0.23 and the “self-splicing fitness (ln)” value (37 °C) is -2.1 ± 0.18.

As to GCAUAGCAAUAUUACGCGGU, the “self-splicing fitness (ln)” value (30 °C) was -3.29 ± 0.16 and the “self-splicing fitness (ln)” value (37 °C) was -1.77 ± 0.16. As to CCACAGCAAUAUUACGACAA, the “self-splicing fitness (ln)” value was -3.09 ± 0.22 (30 °C) and -1.91 ± 0.17 (37 °C). Turning to GUGGAGCAAUAUUACGCAUG, the “self-splicing fitness (ln)” value (30 °C) was -3.81 ± 0.21 and the “self-splicing fitness (ln)” value (37 °C) is -1.8 ± 0.15.

For the sequence CCCAAGCAAUAUUACGCGCG, the “self-splicing fitness (ln)” value was -3.78 ± 0.23 (30 °C) and -2.24 ± 0.21 (37 °C). Consider UAUGAGCAAUAUUACGCAUA, for which, where the note is “37 °C”, the “self-splicing fitness (ln)” value is -2.21 ± 0.42.

For the sequence UGAGAGCAAUAUUACGAGCU, the “self-splicing fitness (ln)” value (37 °C) was -2.53 ± 0.49.

With CGCUAGCAAUAUUACGUAGU, the “self-splicing fitness (ln)” value by setting is: (30 °C) -3.48 ± 0.13; (37 °C) -1.34 ± 0.12. For CAAUAGCAAUAUUACGCAUA, in that order: -2.99 ± 0.18 and -2.08 ± 0.18. In the case of CCCGAGCAAUAUUACGCUCG, the “self-splicing fitness (ln)” value is, setting by setting: (30 °C) -3.62 ± 0.22; (37 °C) -2.92 ± 0.27.

As to CCCCAGCAAUAUUACGAGGC, the “self-splicing fitness (ln)” value is, setting by setting: (30 °C) -3.53 ± 0.26; (37 °C) -3.1 ± 0.35. Consider CCGGAGCAAUAUUACGUAGU, for which the “self-splicing fitness (ln)” value (30 °C) was -4.17 ± 0.25 and the “self-splicing fitness (ln)” value (37 °C) is -3.22 ± 0.22.

With UGUUAGCAAUAUUACGUGAG, the “self-splicing fitness (ln)” value (30 °C) is -1.02 ± 0.051 and the “self-splicing fitness (ln)” value (37 °C) was -0.331 ± 0.065.

Regarding AAAUAGCAAUAUUACGGCUG, the “self-splicing fitness (ln)” value runs as follows: (30 °C) -0.833 ± 0.15; (37 °C) -0.0574 ± 0.18.
